{
  "source": "patent US20230233607A1",
  "about": "(University of California, published 2023)",
  "key": {"[1]": {"molecular_target": "T1, LexA-CIB1-biLINuS", "T1 chain": "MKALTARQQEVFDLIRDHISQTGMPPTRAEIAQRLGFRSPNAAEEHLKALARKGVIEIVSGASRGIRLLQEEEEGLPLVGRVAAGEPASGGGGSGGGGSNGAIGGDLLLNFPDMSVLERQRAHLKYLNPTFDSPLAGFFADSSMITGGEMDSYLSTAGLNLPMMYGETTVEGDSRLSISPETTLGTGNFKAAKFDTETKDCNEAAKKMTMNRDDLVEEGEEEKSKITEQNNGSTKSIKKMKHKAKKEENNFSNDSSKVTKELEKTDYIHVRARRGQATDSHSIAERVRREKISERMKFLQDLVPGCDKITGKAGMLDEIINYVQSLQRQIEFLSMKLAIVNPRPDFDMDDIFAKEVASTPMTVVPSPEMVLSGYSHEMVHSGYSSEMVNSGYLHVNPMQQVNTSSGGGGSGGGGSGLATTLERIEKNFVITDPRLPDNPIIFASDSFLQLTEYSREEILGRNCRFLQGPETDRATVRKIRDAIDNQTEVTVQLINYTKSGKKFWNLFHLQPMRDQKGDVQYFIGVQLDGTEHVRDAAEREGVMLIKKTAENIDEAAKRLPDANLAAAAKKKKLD", "experiment": "cell-based or functional assay"}, "[2]": {"molecular_target": "LexA-CIB1 (No biLINuS)", "experiment": "cell-based or functional assay"}},
  "data": [
    {"binder": "CRY2PHR-VPR (other) MKMDKKTIVWFRRDLRIEDNPALAAAAHEGSVFPVFIWCPEEEGQFYPGRASRWWMKQSLAHLSQSLKALGSDLTLIKTHNTISAILDCIRVTGATKVVFNHLYDPVSLVRDHTVKEKLVERGISVQSYNGDLLYEPWEIYCEKGKPFTSFNSYWKKCLDMSIESVMLPPPWRLMPITAAAEAIWACSIEELGLENEAEKPSNALLTRAWSPGWSNADKLLNEFIEKQLIDYAKNSKKVVGNSTSLLSPYLHFGEISVRHVFQCARMKQIIWARDKNSEGEESADLFLRGIGLREYSRYICFNFPFTHEQSLLSHLRFFPWDADVDKFKAWRQGRTGYPLVDAGMRELWATGWMHNRIRVIVSSFAVKFLLLPWKWGMKYFWDTLLDADLECDILGWQYISGSIPDGHELDRLDNPALQGAKYDPEGEYIRQWLPELARLPTEWIHHPWDAPLTVLKASGVELGTNYAKPIVDIDTARELLAKAISRTREAQIMIGAAPASPKKKRKVEASSPGIRRLDALISTSLYKKAGYKEASGSGRADALDDFDLDMLGSDALDDFDLDMLGSDALDDFDLDMLGSDALDDFDLDMLINSRSSGSPKKKRKVGSQYLPDTDDRHRIEEKRKRTYETFKSIMKKSPFSGPTDPRPPPRRIAVPSRSSASVPKPAPQPYPFTSSLSTINYDEFPTMVFPSGQISQASALAPAPPQVLPQAPAPAPAPAMVSALAQAPAPVPVLAPGPPQAVAPPAPKPTQAGEGTLSEALLQLQFDDEDLGALLGNSTDPAVFTDLASVDNSEFQQLLNQGIPVAPHTTEPMLMEYPEAITRLVTGAQRPPDPAPAPLGAPGLPNGLLSGDEDFSSIADMDFSALLGSGSGSRDSREGMFLPKPEAGSAISDVFEGREVCQPKRIRPFHPPGSPWANRPLPASLAPTPTGPVHEPVGSLTPAPVPQPLDPAPAVTPEASHLLEDPDEETSQAVKALREMADTVIPQKEEAAICGQMDLSHPPPRGHLDELTTTLESMTEDLNLDSPLTPELNEILDTFLNDECLLHAMHISTGLSIFDTSLF", "values": [
      {"measurement": "increase of Fluc signal in the light-stimulated group comparing to the dark group (Jurkat cells)", "setting": "[1]", "result": "> 1000", "unit": "fold"},
      {"measurement": "induction of Fluc activity normalized by Rluc upon light stimulation compared to the dark control (HEK 293T)", "setting": "[1]", "result": 133, "unit": "fold"},
      {"measurement": "mean cellular fluorescence intensity of mNeonGreen reporter, dark group, compared to the non-transfected cells (HEK 293T)", "setting": "[1]", "result": 1.7, "unit": "fold"},
      {"measurement": "mean cellular fluorescence intensity of mNeonGreen reporter, light group, compared to the non-transfected cells (HEK 293T)", "setting": "[1]", "result": 61, "unit": "fold"},
      {"measurement": "induction of Fluc activity normalized by Rluc upon light stimulation compared to the dark control (HEK 293T)", "setting": "[2]", "result": 68, "unit": "fold"}
    ]}
  ]
}
